Laboratory results: patent US9441223

Target: TDP-43 (Homo sapiens) (UniProt Q13148)
Conditions: reanalysis of public CLIP-seq; healthy brain; ratio rises to 2.0 in FTLD

TDP-43 (Homo sapiens), sequence (Q13148 whole entry): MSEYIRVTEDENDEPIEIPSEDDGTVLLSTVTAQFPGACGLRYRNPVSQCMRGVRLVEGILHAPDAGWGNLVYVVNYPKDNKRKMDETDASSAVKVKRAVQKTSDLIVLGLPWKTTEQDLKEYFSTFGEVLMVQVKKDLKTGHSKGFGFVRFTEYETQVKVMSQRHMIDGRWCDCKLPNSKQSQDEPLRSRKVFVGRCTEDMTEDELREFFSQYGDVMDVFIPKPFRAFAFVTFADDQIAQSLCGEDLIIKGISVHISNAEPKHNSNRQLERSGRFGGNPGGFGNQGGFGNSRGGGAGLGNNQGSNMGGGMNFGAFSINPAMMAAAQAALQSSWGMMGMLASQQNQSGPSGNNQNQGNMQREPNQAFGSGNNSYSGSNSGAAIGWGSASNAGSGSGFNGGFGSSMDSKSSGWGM

UGUGU [UGUGU pentamer motif]
binding signal (RefGene/repeat motif enrichment ratio): 1.3
